This data set deals with the molecule itself. The data set can be described thus: affinity purification with mass spectrometry; anti-apo A-II monoclonal antibody covalently bound on a PS-20 protein chip; plasma diluted 1:2 in TBS pH 7.4 or purified HDL, 2 h at room temperature; washes 4 x TBS, TBS-Tween 0.005 %, 5 mM Hepes; SELDI-TOF MS of captured native HDL.

B1: apolipoprotein A-II (natural protein)
chain: not shown
notes: apolipoprotein A-II of human plasma HDL; dimer at about 17.4 kDa (17099, 17221 and 17352 m/z); Three dimer species were seen: the full dimer and dimers lacking one or two terminal (probably C-terminal) glutamine residues; The dimer is probably the disulfide-linked one (my surmise); Present on native HDL particles; also called apo A-II; source: endogenous, human plasma (HDL particles captured …)
The stoichiometry N is the number of molecules, sites or subunits per partner or assembly. With B1, the “stoichiometry N” value was 2.

For the origin of these results see publication PMC2020459, “SELDI-TOF mass spectrometry of High-Density Lipoprotein” (Proteome Science, 2007).
